Assay results from EP0946727B1 (GENENTECH, INC., dated 2007).

Assays:
rhesus CD11a [1] = biological target: T1, rhesus CD11a (rhesus, UniProt H9Z8N3 26-1169); assay: blocking of rhesus lymphocyte adhesion to human keratinocytes
T1 construct: whole, on cells; also called rhCD11a
T1 sequence: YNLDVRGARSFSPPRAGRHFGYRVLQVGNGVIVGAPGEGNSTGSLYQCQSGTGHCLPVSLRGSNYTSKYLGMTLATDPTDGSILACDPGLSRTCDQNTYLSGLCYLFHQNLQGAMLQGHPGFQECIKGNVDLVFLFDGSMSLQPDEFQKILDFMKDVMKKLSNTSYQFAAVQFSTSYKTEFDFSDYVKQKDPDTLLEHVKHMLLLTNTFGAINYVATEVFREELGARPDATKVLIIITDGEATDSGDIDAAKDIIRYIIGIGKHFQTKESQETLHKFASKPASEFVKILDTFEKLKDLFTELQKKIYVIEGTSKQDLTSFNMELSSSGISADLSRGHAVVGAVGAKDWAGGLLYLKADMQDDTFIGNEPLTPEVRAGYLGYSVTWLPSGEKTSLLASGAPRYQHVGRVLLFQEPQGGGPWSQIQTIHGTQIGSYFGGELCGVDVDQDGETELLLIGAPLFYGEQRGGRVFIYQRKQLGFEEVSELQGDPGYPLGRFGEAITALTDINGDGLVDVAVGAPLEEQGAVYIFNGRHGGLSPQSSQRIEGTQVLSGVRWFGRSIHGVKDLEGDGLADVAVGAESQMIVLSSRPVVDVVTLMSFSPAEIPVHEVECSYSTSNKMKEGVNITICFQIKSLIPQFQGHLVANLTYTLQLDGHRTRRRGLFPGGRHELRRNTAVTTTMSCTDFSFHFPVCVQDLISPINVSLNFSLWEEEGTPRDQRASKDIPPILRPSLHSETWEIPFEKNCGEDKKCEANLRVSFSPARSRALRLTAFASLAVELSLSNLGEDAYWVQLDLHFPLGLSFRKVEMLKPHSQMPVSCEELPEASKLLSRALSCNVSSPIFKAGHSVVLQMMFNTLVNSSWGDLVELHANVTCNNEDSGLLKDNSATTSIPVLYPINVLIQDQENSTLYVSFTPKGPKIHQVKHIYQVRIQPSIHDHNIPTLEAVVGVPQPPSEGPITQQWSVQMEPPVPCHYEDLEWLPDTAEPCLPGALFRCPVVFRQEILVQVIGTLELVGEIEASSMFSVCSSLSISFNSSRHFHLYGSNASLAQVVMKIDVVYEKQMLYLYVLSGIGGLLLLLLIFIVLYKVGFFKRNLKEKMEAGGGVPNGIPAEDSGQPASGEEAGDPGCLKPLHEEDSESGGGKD

[2] = biological target: T2, rhesus-human chimeric CD11a (human CD11a with a rhesus I-domain) (human, UniProt P20701 26-1170); assay: blocking of adhesion of Rh/HuCD11a-293 cells to human keratinocytes
T2 construct: whole, on cells; also called Rh/HuCD11a
T2 sequence (looked up): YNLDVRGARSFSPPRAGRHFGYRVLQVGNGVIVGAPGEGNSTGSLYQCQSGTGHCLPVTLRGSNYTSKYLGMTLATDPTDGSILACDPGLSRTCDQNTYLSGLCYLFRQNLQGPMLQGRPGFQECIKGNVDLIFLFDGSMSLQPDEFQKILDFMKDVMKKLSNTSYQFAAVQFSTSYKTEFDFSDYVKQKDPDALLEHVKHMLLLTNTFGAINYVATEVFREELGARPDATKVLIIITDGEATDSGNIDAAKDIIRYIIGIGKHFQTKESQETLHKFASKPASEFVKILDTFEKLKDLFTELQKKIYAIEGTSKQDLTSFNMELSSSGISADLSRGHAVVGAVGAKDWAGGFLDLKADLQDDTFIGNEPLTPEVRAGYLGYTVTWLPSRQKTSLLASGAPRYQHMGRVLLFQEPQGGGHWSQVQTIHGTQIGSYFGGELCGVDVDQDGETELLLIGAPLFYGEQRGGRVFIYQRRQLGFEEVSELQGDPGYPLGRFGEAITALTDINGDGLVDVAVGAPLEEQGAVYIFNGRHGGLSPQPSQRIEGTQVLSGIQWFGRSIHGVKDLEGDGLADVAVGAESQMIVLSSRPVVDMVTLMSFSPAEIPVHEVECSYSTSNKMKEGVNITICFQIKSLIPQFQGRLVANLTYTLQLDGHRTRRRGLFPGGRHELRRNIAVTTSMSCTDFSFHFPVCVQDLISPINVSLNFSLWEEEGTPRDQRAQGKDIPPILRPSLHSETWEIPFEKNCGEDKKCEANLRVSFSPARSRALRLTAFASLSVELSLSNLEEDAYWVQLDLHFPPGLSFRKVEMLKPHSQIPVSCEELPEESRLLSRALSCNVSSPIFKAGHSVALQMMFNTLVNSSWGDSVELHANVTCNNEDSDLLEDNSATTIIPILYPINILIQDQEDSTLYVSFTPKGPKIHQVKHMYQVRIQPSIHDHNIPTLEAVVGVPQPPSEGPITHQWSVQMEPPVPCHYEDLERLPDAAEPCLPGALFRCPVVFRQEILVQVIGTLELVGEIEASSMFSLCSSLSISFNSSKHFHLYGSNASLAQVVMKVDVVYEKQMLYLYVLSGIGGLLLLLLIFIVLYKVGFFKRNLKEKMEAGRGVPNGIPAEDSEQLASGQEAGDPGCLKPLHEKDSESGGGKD

rhesus CD11a [3] = biological target: T1, rhesus CD11a; assay: blocking of rhesus lymphocyte adhesion to human keratinocytes; remark: listed apart in the source
[4] = biological target: T2, rhesus-human chimeric CD11a (human …); assay: blocking of adhesion of Rh/HuCD11a-transfected 293 cells to human keratinocytes
rhesus CD11a [5] = biological target: T1, rhesus CD11a; assay: cell-based or functional assay
rhesus CD11a [6] = biological target: T1, rhesus CD11a; assay: saturation binding, Kd(app)
rhesus CD11a [7] = biological target: T1, rhesus CD11a; assay: cell binding, rhesus CD11a
rhesus CD11a [8] = biological target: T1, rhesus CD11a; assay: blocking of rhesus lymphocyte adhesion to recombinant human ICAM-1 on plates
rhesus CD11a [9] = biological target: T1, rhesus CD11a; assay: as above; remark: listed apart in the source

- fold less efficacious than MHM23 (rhesus CD11a [1]): 74 fold
- fold down from MHM23 [2]: 4 fold
- IC50 (rhesus CD11a [3]): 119 nM
- IC50 [4]: 4.9 nM
- IC50, rhesus mixed lymphocyte response (MLR) (rhesus CD11a [5]): 23.4 nM
- fold down of Kd from the Kd of HuIgG1 for human CD11a (rhesus CD11a [6]): ~26 fold
- fold improvement over the EC50 of HuIgG1 for rhesus CD11a (rhesus CD11a [7]): 240 to 415 fold
- fold weaker than the EC50 of HuIgG1 for human CD11a (rhesus CD11a [7]): 3 to 5 fold
- fold less efficacious than MHM23 (rhesus CD11a [8]): 4 fold
- IC50 (rhesus CD11a [9]): 5.3 nM
B1: rhesus-binding MHM24 IgG1 (rhesusized antibody mutant) (antibody, V domains shown)
VH: EVQLVESGGGLVQPGGSLRLSCAASGYSFTGHWMNWVRQAPGKGLEWVGMIAPASSSTRYNQKFKDRFTISVDKSKNTLYLQMNSLRAEDTAVYYCARGIYFYGTTYFDYWGQGTLVTVSS
VL: DIQMTQSPSSLSASVGDRVTITCRASKTISKYLAWYQQKPGKAPKLLIYSGSTLQSGVPSRFSGSGSGTDFTLTISSLQPEDFATYYCQQHNEYPLTFGQGTKVEIKR
